Test system: Escherichia coli TOP10
Assay: shrunken log2 fold change of peptide-encoding DNA abundance (4.5 h post-induction vs induction); higher = less antimicrobial activity (less host growth inhibition)
Details: time post-induction: 4.5 h; library: site-saturation at positions 5, 18, 19, 20
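Note: peptides expressed intracellularly from a pBAD plasmid library in pooled LB shake-flask culture, induced with 0.3% L-arabinose, DNA abundance read by NGS, three biological replicates, DESeq2 with apeglm shrinkage.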

Row | Sequence | shrunken log2 fold change
1 | RRIRRRPPRLPRPRPRPHQGPRP | 0.0901
2 | RRIRIRPPRLPRPRPRPDNPPRP | -0.152
3 | RRIRDRPPRLPRPRPRPTYVPRP | -0.0733
4 | RRIRQRPPRLPRPRPRPHVPPRP | -0.0247
5 | RRIRIRPPRLPRPRPRPMCNPRP | -0.0808
6 | RRIRGRPPRLPRPRPRPIEKPRP | 0.942
7 | RRIRNRPPRLPRPRPRPCDCPRP | 0.0143
8 | RRIRCRPPRLPRPRPRPSMLPRP | -0.727
9 | RRIRGRPPRLPRPRPRPRHAPRP | 1.05
10 | RRIRSRPPRLPRPRPRPPKHPRP | 0.2
11 | RRIRMRPPRLPRPRPRPEFDPRP | 2.44
12 | RRIRHRPPRLPRPRPRPMHVPRP | -0.0591
13 | RRIRMRPPRLPRPRPRPALRPRP | 0.851
14 | RRIRCRPPRLPRPRPRPYHEPRP | -0.329
15 | RRIRTRPPRLPRPRPRPCQFPRP | -0.0244
16 | RRIRTRPPRLPRPRPRPAGAPRP | 0.164
17 | RRIRQRPPRLPRPRPRPRILPRP | -0.275
18 | RRIRHRPPRLPRPRPRPGTYPRP | -0.0156
19 | RRIRKRPPRLPRPRPRPMDHPRP | 0.34
20 | RRIRERPPRLPRPRPRPPEQPRP | 0.251
21 | RRIRERPPRLPRPRPRPYQWPRP | 0.0039
22 | RRIRPRPPRLPRPRPRPYFSPRP | -0.31
23 | RRIRTRPPRLPRPRPRPVVMPRP | -0.0861
24 | RRIRRRPPRLPRPRPRPLPNPRP | -0.0597
25 | RRIRPRPPRLPRPRPRPDYAPRP | 0.0585

Row | Sequence | shrunken log2 fold change
26 | RRIRCRPPRLPRPRPRPYARPRP | -0.746
27 | RRIRIRPPRLPRPRPRPNNMPRP | -0.959
28 | RRIRRRPPRLPRPRPRPWPYPRP | 0.131
29 | RRIRCRPPRLPRPRPRPAVRPRP | 0.0848
30 | RRIRFRPPRLPRPRPRPTMRPRP | 0.605
31 | RRIRWRPPRLPRPRPRPTNWPRP | 0.206
32 | RRIRLRPPRLPRPRPRPVWFPRP | 0.00279
33 | RRIRRRPPRLPRPRPRPCLWPRP | 0.407
34 | RRIRVRPPRLPRPRPRPRLQPRP | -0.000502
35 | RRIRIRPPRLPRPRPRPNVHPRP | -0.398
36 | RRIRARPPRLPRPRPRPMVPPRP | 0.0221
37 | RRIRSRPPRLPRPRPRPPSMPRP | 0.13
38 | RRIRNRPPRLPRPRPRPEKHPRP | -0.287
39 | RRIRTRPPRLPRPRPRPANIPRP | -0.439
40 | RRIRSRPPRLPRPRPRPVHTPRP | 0.0158
41 | RRIRHRPPRLPRPRPRPNNSPRP | -1.11
42 | RRIRCRPPRLPRPRPRPTKMPRP | -0.301
43 | RRIRTRPPRLPRPRPRPNPQPRP | 0.125
44 | RRIRIRPPRLPRPRPRPEFEPRP | -0.0399
45 | RRIRRRPPRLPRPRPRPWNVPRP | 0.00231
46 | RRIRFRPPRLPRPRPRPDWSPRP | -0.214
47 | RRIRMRPPRLPRPRPRPWHNPRP | -0.0135
48 | RRIRPRPPRLPRPRPRPFTVPRP | 0.0237
49 | RRIRTRPPRLPRPRPRPEPHPRP | 0.0668
50 | RRIRPRPPRLPRPRPRPQASPRP | -0.137

Row | Sequence | shrunken log2 fold change
51 | RRIRFRPPRLPRPRPRPNQLPRP | -1.2
52 | RRIRFRPPRLPRPRPRPNVHPRP | -0.339
53 | RRIRSRPPRLPRPRPRPPRIPRP | 0.132
54 | RRIRVRPPRLPRPRPRPCVIPRP | -0.0142
55 | RRIRMRPPRLPRPRPRPCFFPRP | 0.16
56 | RRIRKRPPRLPRPRPRPESQPRP | 0.967
57 | RRIRMRPPRLPRPRPRPVACPRP | 0.122
58 | RRIRSRPPRLPRPRPRPSTCPRP | 0.0296
59 | RRIRDRPPRLPRPRPRPMLEPRP | 0.358
60 | RRIRCRPPRLPRPRPRPVTTPRP | -0.0492
61 | RRIRMRPPRLPRPRPRPPGIPRP | 1.2
62 | RRIRLRPPRLPRPRPRPVQRPRP | 0.134
63 | RRIRNRPPRLPRPRPRPNCLPRP | -0.116
64 | RRIRSRPPRLPRPRPRPRIVPRP | -0.174
65 | RRIRKRPPRLPRPRPRPQCRPRP | 0.162
66 | RRIRQRPPRLPRPRPRPCMMPRP | -0.498
67 | RRIRYRPPRLPRPRPRPKHNPRP | -0.68
68 | RRIRCRPPRLPRPRPRPEENPRP | 0.602
69 | RRIRDRPPRLPRPRPRPMAIPRP | 0.00911
70 | RRIRKRPPRLPRPRPRPTHSPRP | 0.168
71 | RRIRKRPPRLPRPRPRPIPHPRP | 0.359
72 | RRIRERPPRLPRPRPRPFNAPRP | -0.328
73 | RRIRGRPPRLPRPRPRPNDRPRP | 0.288
74 | RRIRKRPPRLPRPRPRPYKTPRP | -0.227
75 | RRIRSRPPRLPRPRPRPHRHPRP | -0.0713

Reference: the supplement of paper PMC9112550, “Optimization of the antimicrobial peptide Bac7 by deep mutational scanning” (BMC Biology, 2022)
